# Measurements published in US20200025759A1 (PANASONIC INTELLECTURAL PROPERTY MANAGEMENT, published 2020).
# B1: VHH antibody consisting of the amino acid sequence represented by SEQ ID NO: 8 (VHH)
# VHH: QVQLVESGGGLVQAGGSLRLSCIASGSIFSPNVMGWYRQAPGKPRELVAAITLGESTNYADSVKGRFTISRSNAENTVYLQMDSLKPEDTAVYYCNAGPILERVGPYWGQGTQVTVSS
# B2: phage-displayed VHH antibody (protein synthesized from the DNA sequence represented by SEQ ID NO: 18, i.e. SEQ ID NO: 8) (VHH)
# VHH: B1 VHH
# Columns and labels:
# [1] = biological target: recombinant nucleoprotein (NP) protein derived from influenza virus H1N1 to which a Flag tag was fus (influenza virus H1N1)
# recombinant nucleoprotein (NP) protein derived from influenza virus H1N1 to which a Flag tag was fus (influenza virus H1N1), sequence (P03466 whole entry): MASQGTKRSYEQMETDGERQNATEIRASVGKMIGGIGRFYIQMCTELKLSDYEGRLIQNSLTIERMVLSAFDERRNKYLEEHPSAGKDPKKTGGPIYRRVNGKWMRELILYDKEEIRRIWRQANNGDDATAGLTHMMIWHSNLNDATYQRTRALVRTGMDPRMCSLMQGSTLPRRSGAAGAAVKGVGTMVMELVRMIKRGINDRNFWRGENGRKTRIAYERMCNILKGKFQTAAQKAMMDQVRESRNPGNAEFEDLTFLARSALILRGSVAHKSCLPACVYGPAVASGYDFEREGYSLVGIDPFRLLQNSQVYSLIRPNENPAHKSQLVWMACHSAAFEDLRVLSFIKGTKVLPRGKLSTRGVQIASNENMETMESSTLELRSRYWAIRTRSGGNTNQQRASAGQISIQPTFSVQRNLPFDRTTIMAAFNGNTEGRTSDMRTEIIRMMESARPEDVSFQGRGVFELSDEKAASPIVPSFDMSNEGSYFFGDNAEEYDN
# [2] = biological target: intranuclear protein derived from type-A influenza virus H7N7 (A/seal/Massachusetts/1/1980) (type-A influenza virus H7N7 …, UniProt P26053 1-498); experiment: ELISA, virus solution immobilized on plate, anti-His-HRP detection
# intranuclear protein derived from type-A influenza virus H7N7 (A/seal/Massachusetts/1/1980), sequence (P26053 whole entry): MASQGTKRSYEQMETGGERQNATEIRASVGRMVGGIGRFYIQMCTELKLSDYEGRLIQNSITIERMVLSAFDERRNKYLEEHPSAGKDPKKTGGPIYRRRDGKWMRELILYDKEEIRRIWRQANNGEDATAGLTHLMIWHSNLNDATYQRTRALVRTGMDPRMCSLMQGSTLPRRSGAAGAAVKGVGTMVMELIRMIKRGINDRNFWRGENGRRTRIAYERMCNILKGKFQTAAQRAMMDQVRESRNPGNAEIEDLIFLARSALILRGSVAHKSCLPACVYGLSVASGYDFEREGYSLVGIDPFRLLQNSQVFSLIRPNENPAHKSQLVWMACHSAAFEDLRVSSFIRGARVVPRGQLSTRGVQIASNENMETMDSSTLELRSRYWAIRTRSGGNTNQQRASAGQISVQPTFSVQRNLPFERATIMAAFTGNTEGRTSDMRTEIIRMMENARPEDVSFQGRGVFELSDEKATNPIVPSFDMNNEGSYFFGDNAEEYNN
# [3] = biological target: intranuclear protein derived from type-A influenza virus H11N6 (A/duck/England/1/1956) (type-A influenza virus H11N6 …, UniProt P26062 1-498); experiment: as above
# intranuclear protein derived from type-A influenza virus H11N6 (A/duck/England/1/1956), sequence (P26062 whole entry): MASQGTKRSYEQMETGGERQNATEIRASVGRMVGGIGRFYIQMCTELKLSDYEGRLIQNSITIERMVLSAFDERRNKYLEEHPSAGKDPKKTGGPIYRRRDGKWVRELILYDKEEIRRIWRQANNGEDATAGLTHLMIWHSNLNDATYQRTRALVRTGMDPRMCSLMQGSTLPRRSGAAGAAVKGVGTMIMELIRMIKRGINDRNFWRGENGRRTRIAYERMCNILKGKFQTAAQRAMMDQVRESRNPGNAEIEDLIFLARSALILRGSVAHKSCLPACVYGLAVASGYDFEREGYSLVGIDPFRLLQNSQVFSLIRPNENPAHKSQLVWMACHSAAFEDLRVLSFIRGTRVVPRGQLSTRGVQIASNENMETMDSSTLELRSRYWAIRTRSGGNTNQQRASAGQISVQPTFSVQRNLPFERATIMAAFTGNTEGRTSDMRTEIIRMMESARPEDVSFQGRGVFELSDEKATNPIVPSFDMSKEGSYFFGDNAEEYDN
# [4] = biological target: intranuclear protein derived from type-A influenza virus H1N1 (A/Puerto Rico/8/34/Mount Sinai) (type-A influenza virus H1N1 (A/Puerto …, UniProt P03466 1-498)); experiment: as above
# intranuclear protein derived from type-A influenza virus H1N1 (A/Puerto Rico/8/34/Mount Sinai) (type-A influenza virus H1N1, sequence (P03466 whole entry): as the sequence (P03466 whole entry) above
# [5] = biological target: recombinant intranuclear protein (SEQ ID NO: 24) derived from a type-A influenza virus H1N1 (A/Puert (type-A influenza virus H1N1 (A/Puerto …, UniProt P03466 1-498))); experiment: phage ELISA on immobilized NP, anti-M13 detection, absorbance at 450 nm
# recombinant intranuclear protein (SEQ ID NO: 24) derived from a type-A influenza virus H1N1 (A/Puert (type-A influenza virus H1N1, sequence (P03466 whole entry): as above
binder,measurement,setting,value
B1,Kd,[1],0.826 nM
same,binding result,[2],binds
same,binding result,[3],binds
same,binding result,[4],binds
B2,binding result,[5],binds
